Experimental data published in publication PMC10950897, “VCF1 is a p97/VCP cofactor promoting recognition of ubiquitylated p97-UFD1-NPL4 substrates” (Nature Communications, 2024).

Tests used:
[1] = test system: Ub(G76V)-GFP, U2OS cells; assay: QIBC of Ub(G76V)-GFP after siRNA; format: cell-based, human; settings: siRNA 20 nM, QIBC >10,000 cells
Method: (§1) U2OS (catalog no. HTB-96) cells were obtained from ATCC. HEK293-EBNA1-6E cells were a kind gift from Yves Durocher (National Research Council Canada, Montreal, Canada). All mammalian cell lines were cultured under standard conditions at 37 °C and 5% CO2 in DMEM (Thermo) supplemented with 10% FBS (v/v) and penicillin-streptomycin (Thermo). Recombination cloning-compatible U2OS cells were generated using the Flp-In T-Rex Core Kit (Thermo) according to the manufacturer’s instructions and maintained under selection using Blasticidin (Invivogen) and Zeocin (Thermo). To generate cell lines stably expressing GFP-VCF1, U2OS Flp-In T-Rex cells (Thermo) were co-transfected with GFP-VCF1 constructs and pOG44 (Thermo) plasmids, followed by selection with Hygromycin (Invitrogen). Single clones were carefully screened for uniform expression of ectopic GFP-VCF1 at low levels and maintained under selection with Blasticidin and Hygromycin. To induce GFP-VCF1 expression, cells were treated with Doxycycline (DOX) (0.5 µg/ml) for 16 h. U2OS cell lines stably expressing Ub(G76V)-GFP or Ub(G76V)-GFP-20AA were described previously. A U2OS cell line stably expressing Ub(G76V)-GFP-NES was generated under G418 (Invivogen) selection. […]
(§2) Mammalian cells grown on coverslips were fixed in formalin buffer (VWR) for 15 min at room temperature (RT). […] Quantitative image-based cytometry (QIBC) was performed as described. […]

[2] = test system: NPL4, U2OS/Ub(G76V)-GFP cells; assay: Immunoblot of siRNA knockdown efficiency; format: cell-based, human
Method: All siRNAs (Sigma) were used at 20 nM and transfected with Lipofectamine RNAiMAX reagent (Thermo) according to manufacturer’s instructions. The following siRNA oligonucleotides were used: Non-targeting control (CTRL): 5′-[…]-3′; VCF1(#1): 5’-[…]-3’; VCF1(#2): 5’-[…]-3’; p47: 5’-[…]-3’; NPL4: 5’-[…]-3’; FAF1: 5′-[…]-3′; p97: Dharmacon SmartPool (D-008727).
Immunoblotting was performed as previously described. Immunoprecipitation (IP) of HA-tagged proteins was performed using Anti-HA Affinity matrix (Roche) under denaturing conditions, unless otherwise stated. GFP-trap and […] Fab-trap agarose (Chromotek) were used according to manufacturer’s instructions. Cell lysis was performed using RIPA buffer (140 mM NaCl; 10 mM Tris-HCl, pH 8.0; 0.1% sodium deoxycholate; 1% Triton X-100; 0.1% SDS; 1 mM EDTA; 0.5 mM EGTA) or EBC buffer (50 mM Tris, pH 7.5; 150 mM NaCl; 1 mM EDTA; 0.5% NP-40, 1 mM DTT). IPs were washed in non-denaturing buffer (50 mM Tris-HCl, pH 7.5; 150 mM NaCl; 0.5 mM EDTA). Cell lysis and IP under partially denaturing conditions were performed using denaturing buffer (20 mM Tris-HCl, pH 7.5; 50 mM NaCl; 0.5% sodium deoxycholate; 0.5% NP-40; 0.5% SDS; 1 mM EDTA). […]

[3] = test system: Ub(G76V)-GFP-NES, U2OS cells; assay: Imaging of Ub(G76V)-GFP-NES after siRNA or p97 inhibitor; format: cell-based, human; settings: siRNA 20 nM or p97i (NMS-873) 2 h
Method: as §1, §2

[4] = molecular target: T1, p97 (His6-p97 WT) (Homo sapiens, UniProt P55072); assay: SPR: binding to immobilized His6-p97 WT; settings: N167A mutants; in vitro binding experiments and SPR, up to 300 nM (peptides) or 100 nM (full-length)
T1 construct: Coomassie Blue staining of full-length and truncated His6-p97 proteins purified from E; made in house; host or cells: E. coli BL21(DE3)
Method: Surface Plasmon Resonance (SPR)
All SPR experiments were performed at 25 °C on a Biacore T200 instrument equipped with CM5 or CM7 sensor chips (Cytiva, Uppsala, Sweden). SPR running buffers and amine-coupling reagents (N-ethyl-N’-(3-dimethlyaminoproply)carbodiimide (EDC), N-hydroxysuccinimide (NHS), and ethanolamine HCl) were purchased from Cytiva. 1x PBS-P (11.9 mM NaH2PO4-Na2HPO4, pH 7.4; 137 mM NaCl; 2.7 mM KCl; 0.005% surfactant P20) supplemented with 0.5 mM TCEP was used as running buffer for the immobilization and the binding experiments with Strep-HA-VCF1 full-length proteins. For the VCF1 C-terminal peptide binding studies, 2% DMSO was additionally included in the running buffer. Eight solvent correction samples ranging from 1.5% DMSO to 2.8% DMSO prepared in either PBS-P, 0.5 mM TCEP or Tris-based buffer were used to correct buffer/DMSO mismatches. The CM5 chip was used for the kinetic analysis of the interactions between p97 proteins and VCF1 full-length proteins or VCF1 C-terminal peptides. p97 was immobilized at different densities on the carboxymethyl dextran sensor chip surface by amine-coupling chemistry. For kinetic analysis, p97 was immobilized at low density (~400 RU) on flow cells 2 (Fc2) and 3 (Fc3), respectively, of a CM5 chip. […] The dissociation rate of the p97-VCF1 complexes was monitored for 400 s. […] Binding experiments were measured in triplicates. […]

[5] = test system: p97; assay: GFP IP of GFP-VCF1 alanine mutants from U2OS cells; format: binding, human; settings: full-length GFP-VCF1, U2OS
Method: (§3) Immunoblotting was performed as previously described. Immunoprecipitation (IP) of HA-tagged proteins was performed using Anti-HA Affinity matrix (Roche) under denaturing conditions, unless otherwise stated. GFP-trap and […] Fab-trap agarose (Chromotek) were used according to manufacturer’s instructions. Cell lysis was performed using RIPA buffer (140 mM NaCl; 10 mM Tris-HCl, pH 8.0; 0.1% sodium deoxycholate; 1% Triton X-100; 0.1% SDS; 1 mM EDTA; 0.5 mM EGTA) or EBC buffer (50 mM Tris, pH 7.5; 150 mM NaCl; 1 mM EDTA; 0.5% NP-40, 1 mM DTT). IPs were washed in non-denaturing buffer (50 mM Tris-HCl, pH 7.5; 150 mM NaCl; 0.5 mM EDTA). Cell lysis and IP under partially denaturing conditions were performed using denaturing buffer (20 mM Tris-HCl, pH 7.5; 50 mM NaCl; 0.5% sodium deoxycholate; 0.5% NP-40; 0.5% SDS; 1 mM EDTA). All lysis and wash buffers were supplemented with 1 mM fresh PMSF Protease Inhibitor (Thermo), complete EDTA-free protease inhibitor Cocktail Tablets (Roche), 1.25 mM N-ethylmaleimide (Sigma) and 50 µM PR-619 (Calbiochem).

[6] = test system: GFP-VCF1 WT / N167A interactome, U2OS cells; assay: GFP IP mass spectrometry, comparison of VCF1 WT and N167A interactomes (WT/N167A); format: binding, human; settings: stably expressed GFP-VCF1, MS interactome
Method: U2OS (catalog no. HTB-96) cells were obtained from ATCC. HEK293-EBNA1-6E cells were a kind gift from Yves Durocher (National Research Council Canada, Montreal, Canada). All mammalian cell lines were cultured under standard conditions at 37 °C and 5% CO2 in DMEM (Thermo) supplemented with 10% FBS (v/v) and penicillin-streptomycin (Thermo). Recombination cloning-compatible U2OS cells were generated using the Flp-In T-Rex Core Kit (Thermo) according to the manufacturer’s instructions and maintained under selection using Blasticidin (Invivogen) and Zeocin (Thermo). To generate cell lines stably expressing GFP-VCF1, U2OS Flp-In T-Rex cells (Thermo) were co-transfected with GFP-VCF1 constructs and pOG44 (Thermo) plasmids, followed by selection with Hygromycin (Invitrogen). Single clones were carefully screened for uniform expression of ectopic GFP-VCF1 at low levels and maintained under selection with Blasticidin and Hygromycin. To induce GFP-VCF1 expression, cells were treated with Doxycycline (DOX) (0.5 µg/ml) for 16 h. U2OS cell lines stably expressing Ub(G76V)-GFP or Ub(G76V)-GFP-20AA were described previously. A U2OS cell line stably expressing Ub(G76V)-GFP-NES was generated under G418 (Invivogen) selection. Clones with low baseline GFP expression were visually screened for low basal GFP expression. All cell lines used in this study were regularly tested negative for mycoplasma infection and were not authenticated.
as §3
GFP-Trap agarose (Chromotek) pulldowns were subjected to partial on-bead digestion for peptide elution, by addition of 100 µl of elution buffer (50 mM Tris, pH 7.5; 2 M urea; 2 mM DTT; 20 µg/ml trypsin) and incubation at 37 °C for 30 min. To carry out alkylation, 25 mM CAA was added to the samples, which were then left to digest overnight at room temperature. Digestion was halted by introducing 1% TFA. Purification and desalting of peptides were done using SDB-RPS StageTips. This process required preparing two layers of SDB-RPS with 100 µl of wash buffer (0.2% TFA in H2O), onto which the peptides were loaded. After centrifugation for 5 min at 500 × g, peptides were washed using 150 µl wash buffer, eluted with 50 µl elution buffer (80% ACN; 1% ammonia) and vacuum-dried.
Liquid chromatography-mass spectrometry (LC-MS) analysis was conducted using an EASY-nLC-1200 system (Thermo Fisher Scientific), coupled with a timsTOF Pro spectrometer and a nano-electrospray ion source (Bruker Daltonik). […]

[7] = test system: p97 ATPase; assay: ATPase assay; format: biochemical, human; settings: p97 25 nM, ATP 375 μM
Method: For ATPase assays, 1 ml of 5x assay buffer (250 mM Tris, pH 7.4; 100 mM MgCl2; 5 mM EDTA) was mixed with 3 ml water, 5 μl 0.5 M TCEP and 5 μl 10% Triton X. To 40 ul of this assay buffer, recombinant proteins were added, mixed and incubated for 30 min. Final protein concentrations were as follows: p97 (25 nM), VCF1 (range of 0, 0.025, 1, 10 and 25 nM). The reactions were started by adding 10 μl ATP (final concentration of 375 μM) to the 40 μl reactions in a 96 well plate. After 35 min at room temperature, reactions were stopped by adding 50 μl BIOMOL Green reagent (Enzo Life Sciences). Absorbance at 635 nm was measured after 4 min and the relative ATPase activity calculated. Reactions were performed in duplicates and repeated three times.

[8] = test system: p97-UFD1-NPL4 binding to K48-Ub2-7; assay: FLAG IP: p97-UFD1-NPL4 binding to K48-linked ubiquitin chains, purified proteins; format: biochemical, human; settings: high protein amounts, mild buffer
Method: All in vitro binding experiments were performed in EBC or RIPA buffer as indicated. Recombinant Biotin-tagged K48-linked poly-ubiquitin chains (2−7) and K48-linked poly-ubiquitin chains (2−16) were purchased from R&D Systems and Enzo Life Science, respectively. Recombinant proteins were incubated with Strep-Tactin Sepharose (IBA), Glutathione agarose (Gold Biotechnology) or […] Fab-trap agarose (ChromoTek) overnight on an end-over-end rotator at 4 °C, washed six times with EBC or RIPA buffer, and resuspended in 2×Laemmli sample buffer. For p97, VCF1 or p47 pulldowns, antibodies (0.5 µg/sample) were coupled to agarose beads, incubated with recombinant proteins or cell lysates and washed with the indicated buffer. To assess p97-UFD1-NPL4 binding to ubiquitylated proteins in total cell extracts, U2OS cells were lysed in EBC buffer supplemented with protease and phosphatase inhibitors, sonicated and incubated on ice for 10 min. Lysates were cleared by centrifugation for 10 min at 16,100 × g. Cell lysate (40 µg) was added to recombinant proteins in EBC buffer, incubated overnight on the rotator with […] Fab-trap agarose (ChromoTek), and beads were washed six times.

T1 sequence (P55072 whole entry, the tested form may be a part): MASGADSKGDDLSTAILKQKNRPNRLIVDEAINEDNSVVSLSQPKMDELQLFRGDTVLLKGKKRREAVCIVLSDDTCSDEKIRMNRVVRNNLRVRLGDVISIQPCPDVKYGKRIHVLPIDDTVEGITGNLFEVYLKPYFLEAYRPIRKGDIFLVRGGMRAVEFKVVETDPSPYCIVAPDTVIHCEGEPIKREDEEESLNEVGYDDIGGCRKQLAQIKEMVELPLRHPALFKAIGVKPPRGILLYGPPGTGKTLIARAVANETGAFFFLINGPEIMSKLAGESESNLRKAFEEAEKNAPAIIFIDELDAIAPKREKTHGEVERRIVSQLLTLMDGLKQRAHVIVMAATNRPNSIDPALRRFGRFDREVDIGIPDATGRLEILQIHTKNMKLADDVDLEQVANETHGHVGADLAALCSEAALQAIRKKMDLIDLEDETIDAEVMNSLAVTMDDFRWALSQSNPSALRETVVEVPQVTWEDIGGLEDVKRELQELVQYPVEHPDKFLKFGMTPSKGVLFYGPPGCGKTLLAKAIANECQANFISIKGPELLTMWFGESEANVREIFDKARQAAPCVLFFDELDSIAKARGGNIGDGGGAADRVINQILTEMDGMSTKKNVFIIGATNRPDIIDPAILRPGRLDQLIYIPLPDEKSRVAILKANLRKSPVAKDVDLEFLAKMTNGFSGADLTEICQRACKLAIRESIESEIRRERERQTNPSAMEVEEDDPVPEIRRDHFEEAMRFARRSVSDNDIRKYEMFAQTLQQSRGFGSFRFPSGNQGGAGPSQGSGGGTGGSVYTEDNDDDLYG

In the case of “5’-CACGCCUAAUCCUGUUGACAA-3’ [NPL4 siRNA]”, the “effect on Ub(G76V)-GFP level” value [1] is reported as “increased Ub(G76V)-GFP abundance as expected” and the “reduction in NPL4 abundance” value [2] is reported as ~ 50%.

In the case of `Cc1cc(OCc2nnc(SC3CCCC3)n2-c2cccnc2)ccc1-c1ccc(S(C)(=O)=O)cc1` [NMS-873], the “effect on Ub(G76V)-GFP-NES” value [3] is reported as “strong Ub(G76V)-GFP-NES accumulation”.

With “VCF1 N167A: full-length VCF1 with N167A point mutation in VRM” the “binding to p97 WT (in words)” value [4] was “abrogated binding to p97”, the “effect of alanine scan on p97 binding” value [5] was “essential for VCF1 binding to p97” and the “p97 binding of N167A vs WT” value [6] was “strong loss of p97 binding”. The “relative ATPase activity” value ([7]; 0.025 nM, replicate 1) was 1.034, the “relative ATPase activity” value ([7]; 0.025 nM, replicate 2) was 0.974 and the “relative ATPase activity” value ([7]; 0.025 nM, replicate 3) was 1.059. For the same molecule, the “relative ATPase activity” value ([7]; 1 nM, replicate 1) was 1.009, the “relative ATPase activity” value ([7]; 1 nM, replicate 2) was 1.013 and the “relative ATPase activity” value ([7]; 1 nM, replicate 3) was 1.024. The “relative ATPase activity” value ([7]; 10 nM, replicate 1) was 1.046, the “relative ATPase activity” value ([7]; 10 nM, replicate 2) was 0.967 and the “relative ATPase activity” value ([7]; 10 nM, replicate 3) was 0.99. For the same molecule, the “residual binding of N167A mutant to p97” value [8] was “very weak residual binding to p97”.
